Results taken from the DeepSol protein solubility set.

assay: soluble on expression in E. coli; label from the status in PepcDB or PDB records

| Sequence | soluble on expression in E. coli |
| --- | --- |
| RMALDEVWDSSHFALQPGRAEDGPGASLALRILAARLPDSGVYVCHARNAHGHAQAGALLQVHQPPESPPADPDEAPAPVVEPLKCAPKTFWVNEGKHAKFRCYVMGKPEPEIEWHWEGRPLLPDRRRLMYRDRDGGFVLKVLYCQAKDRGLYVCAARNSAGQTLSAVQLHVKEPRLRFTRPLQDVEGREHGIAVLECKVPNSRIPTAWFREDQRLLPCRKYEQIEEGTVRRLIIHRLKADDDGIYLCEMRGRVRTVANVTVKGPILKRLPRKLDVLEGENAVLLVETLEAGVEGRWSRDGEELPVICQSSSGHMHALVLPGVTREDAGEVTFSLGNSRTTTLLRVKCVKHSPPGPPILAEMFKGHKNTVLLTWKPPEPAPETPFIYRLERQEVGSEDWIQCFSIEKAGAVEVPGDCVPSEGDYRFRICTVSGHGRSPHVVFHGSAHLVPTARLVAGLEDVQVYDGEDAVFSLDLSTIIQGTWFLNGEELKSNEPEGQVEPGALRYRIEQKGLQHRLILHAVKHQDSGALVGFSCPGVQDSAALTIQESPVHILSPQDKVSLTFTTSERVVLTCELSRVDFPATWYKDGQKVEESELLVVKMDGRKHRLILPEAKVQDSGEFECRTEGVSAFFGVTVQDPPVHIVDPREHVFVHAITSECVMLACEVDREDAPVRWYKDGQEVEESDFVVLENEGPHRRLVLPATQPSDGGEFQCVAGDECAYFTVTITDVSSWIVYPSGKVYVAAVRLERVVLTCELCRPWAEVRWTKDGEEVVESPALLLQKEDTVRRLVLPAVQLEDSGEYLCEIDDESASFTVTVTEPPVRIIYPRDEVTLIAVTLECVVLMCELSREDAPVRWYKDGLEVEESEALVLERDGPRCRLVLPAAQPEDGGEFVCDAGDDSAFFTVTVTEPPVQFLALETTPSPLCVAPGEPVVLSCELSRAGAPVVWSHNGRPVQEGEGLELHAEGPRRVLCIQAAGPAHAGLYTCQSGAAPGAPSLSFTVQVAEPPVRVVAPEAAQTRVRSTPGGDLELVVHLSGPGGPVRWYKDGERLASQGRVQLEQAGARQVLRVQGARSGDAGEYLCDAPQDSRIFLVSVEEPLLVKLVSDLTPLTVHEGDDATFRCEVSPPDADVTWLRNGAVVTPGPQRQSCCSYGGCRMCGQRKARTCVSKWRQAEWVQRGPCAGCEVGSPCPTTLACPWPRMGTSTASSSMVSYWPTRAPTAARATTIAPWPGSA | soluble |
| MGSDKIHHHHHHMSDVLSQEEINQLIEALMKGELKEEDLLKEEEEKKVKPYDFKRPSKFSKEQLRTFQMIHENFGRALSTYLSGRLRTFVDVEISIDQLTYEEFIRSVMIPSFIVIFTGDVFEGSAIFEMRLDLFYTMLDIIMGGPGENPPNRPPTEIETSIMRKEVTNMLTLLAQAWSDFQYFIPSIENVETNPQFVQIVPPNEIVLLVTASVSWGEFTSFINVCWPFSLLEPLLEKLSDRFWMMGRKPEKVEERMEELRKASQKIPVTVQAVIGETELRLKEILDLEVGDVIRLGTHYKDEIRIDVEGRPKFRGIPGVFKGKYAVKVTGEFTNGGEYE | not soluble |
| MDHRRLWRAANRLASDRLGSGEMCCALTSPTSTAQSPSTSFFFGSSLPFLLATIPHTLISAIAEHAILHAWYGGPHVYPDAKLPCPTATFVFKDSPLLRVDDVTSLQWDRAQAANFLVAVLRQPAVQKELRQRLWSAVQNCHRGVLRKLESLAVQKDVEGASKEAAADRLILLDQEPGMPSPPSLSLREVRDDLFSFDELLYFVRVSPSTSSTSRQQRVECESLRSTHLFRFVTSRADVAAALRDRPRSNVSDLLFCVSLRNGDTSAKASSAPVSLSTRDKLWLLLSEMVRLRYLVAYLLNFEVMLHRVRNSTRHSQRGQSTSKEVDSAGFPGNSSSEHADAQDAENAKCIAAVFRFLDIRLHTRLAVSPHHRRFLRHARVRHCERSATPEPPDRATAAHEATDADTSVRHEARRYATVQELFSAFSKALEESTTPPSQLPATVASFTSLAKSPGEGQGAAENGIEAMSKRPDHMRGRSARQNVVQARATSDGPSSLSDTDDEFLKAIVSATRQDQPPDSTVQSTPMRATHRGGVKSPSANPGELPCSRGLPGRRCLTAERSTTCLPQSRRAAEDPHPFVDVVFERKSNRSKWPFQALRARTNASNFKVRFGGSHDASSHAAVICFQLSCTREEREKAEIAPLSGKSAADLLQQYPYVTHVNGISARKVELVVRLFRSAHVLKLRLARRPPDR | soluble |
| MPAYHSKFDTELKVLPLGNTNMGKLPIRTNFKGPAPQTNQDDIIDEALTYFKPNIFFREFEIKGPADRTMIYLIFYITECLRKLQKSPNKIAGQKDLHALALSHLLPIPGENGFPLNSMYKAPQSKPDEDEMRAYLQQIRQEIGARLCDLAFPDPQDRPSKWWLCFARRRFMDKGLVGQGVNL | soluble |
| MNNENERFEGFFSRVVEQVRTLVLVPICQENKSENASPVCSVSSRVQEVLGLAQAIRLEVVYYETVNINIPRPATLFGTGKVKALTHYISEYDIELVIVDHFLTPVQQRNLEKLWNCKVIDRTALILEIFGDRARTKEGVLQVELAHLSYQKSRLVRSWTHLERQRGGHGFLGGPGETQIEADRRLLQEKIIRIRRELEKVIKTRALHRAKRKKTSHPIVALVGYTNTGKSTLFNRLSGANVLAKDMLFATLDPTLRKVVLPHGKTILLSDTVGFISHLPTHLIAAFRATLEEVVEADLILHVRDMSDLDHRAHGQDVLEVLADLGIDIDDTEHIIEVWNKIDILDEHALNVLQTSARTRLNPAVMVSALMSDGLDQLLTAIEKRVFGEMQSIECLLRPHEMSLISWFYENSGEIMQEGHNDGSVTIRAMLTSEAKKRLDHIKQTMN | not soluble |
| MGSDKIHHHHHHMNLLDHLRRMAGNNLWSNDRLYRAVLALKPGEFEAERTSFFPSIKATLNHVLAVDYLYLDFLEEGGVGAAAHDDFVPFDEPQPLFAAQMAADRRLIAFCDGLSEADLDRRVITDRRADGMIPERIGDILAHVFLHDIHHRGQVHAMLSGTSVVPPQLDEFLLDYDAKLRKAEVERLGL | not soluble |
| GSMASAAVANYEEEIVRPVADFSPSLWGDQFLSFSIKNQVAEKYAKEIEALKEQTRNMLLATGMKLADTLNLIDTIERLGISYHFEKEIDDILDQIYNQNSNCNDLCTSALQFRLLRQHGFNISPEIFSKFQDENGKFKESLASDVLGLLNLYEASHVRTHADDILEDALAFSTIHLESAAPHLKSPLREQVTHALEQCLHKGVPRVETRFFISSIYDKEQSKNNVLLRFAKLDFNLLQMLHKQELAQVSRWWKDLDFVTTLPYARDRVVECYFWTLGVYFEPQYSQARVMLVKTISMISIVDDTFDAYGTVKELEAYTDAIQRWDINEIDRLPDYMKISYKAILDLYKDYEKELSSAGRSHIVCHAIERMKEIVRNYNVESTWFIEGYTPPVSEYLSNALATTTYYLLATTSYLGMKSATEQDFEWLSKNPKILEASVIICRVIDDTATYEVEKSRGQIATGIECCMRDYGISTKEAMAKFQNMAETAWKDINEGLLRPTPVSTEFLTPILNLARIIEVTYIHNLDGYTHPEKVLKPHIINLLVDSIKI | soluble |
| MNVLIVGSGGREHALAWKMKQSPKVKNVIVAPGNGGHSERIDINSNDLDAVADFCEKHNIHCVLIGPEEPLSNGLADHLIRIHPNLMVFGPLKDGAQLETSKSFSKHFMKEYGLPTADFVTVSIENVKSLDCVFERLPWKNSVVKADGLAAGKGVIIPRNNAEAVEAARSILHGQFGNAGRTVIIEERLEGYEVSALAFTDGISFKRMPLGKDHKRLLESDLGPNTGMGVVAPVSVPKEVDRQIDEIFEKTLKGLADRKIKYCGVLYAGFMIVDQKPLLLEFNCRFGDPETQVLMRLLESDLFEIISSCVNQTLNTCDINWSTKSVCGVVLASGNYPKSGDKGSPITEIPSPDSTNVVFHAGTSVINSQIVTNGGRILCVTSLADTLHDAREHANKIAQNIQFTGKQFRKDIGKTIDIGTPSLSYGSSGVNIDEGNQFVEDIKLLVKKTLLPGAAQIGGFGAVLDLKKAGFSNDSQLVVGIDGVGTKIEVATHCNNFTGVGYDVVAMCVNDVICHCAKPIAFLDYFVCGKLERSMATQVLTSISEACVEAECSLIGGETAEMPGVYSTHQWDLAGCAIAARESTWPMLPLSSEIRDGDVILGLPSSGLHSNGFSLARKILTVNGVKYNDPLPWDSKSTFGTELLRGTKLYVKKVLPLLSTGLVKGCAHITGGGLTENAIRVLDKNSKDSLVIDCASWKFREIFNWMAAAGPVDTKEMIRTFNCGIGMVLIVSPDNVEKVKKQLRKHEEEFYEIGHVENSKNGEAIKFVNEEKMFQREKYTTQRKRVRVAILISGTGTNMQKLIERSKTPDSNCDVVLVVSNKEGAGGLTIAASYGIPTKVVPHTADRVTGDTELAQVLKDFGTELVCLGGYMRILSPCFISQFPSRIINIHPSLLPAFKGAHALQDALNFGVRIVGCTAHFVDELVDHGDIIAQRPVVVEDTDTIETVRQKIQLQEHEMFPNAMIAVAAKILEK | not soluble |
